The results in this text go back to article PMC5628404 (2017).

Where two headings read alike, the source gives them in different places.

As a reminder, the Kd is the constant that tells how readily two partners part at equilibrium. A lower Kd goes with a tighter complex. What is called koff is the first-order rate constant of dissociation.

What all share (experiment): SPR
In general terms: Surface plasmon resonance follows binding to a sensor surface in real time, without labels.

For assay [1], the target named is M1-linked tetra-ubiquitin chain (M1-Ub4) (human, UniProt P0CG48 1-76; P0CG48 1-76; P0CG48 1-76; P0CG48 1-76).
The target of assay [2] is M1-linked tri-ubiquitin chain (M1-Ub3) (human, UniProt P0CG48 1-76; P0CG48 1-76; P0CG48 1-76).
The target of assay [3] is T1, M1-linked di-ubiquitin chain (M1-Ub2) (human, UniProt P0CG48 1-76; P0CG48 1-76).
For assay [4], the target named is T2, K27-linked di-ubiquitin (K27-Ub2) (human, UniProt P0CG48 1-76, isopeptide linkage between the C-terminal glycine of one ubiquitin and K27 of the other).
The target of assay [5] is T3, K63-linked di-ubiquitin (K63-Ub2) (human, UniProt P0CG48 1-76, isopeptide linkage between the C-terminal glycine of one ubiquitin and K63 of the other).
For assay [6], the target named is T2, K27-linked di-ubiquitin (K27-Ub2). This is another data set of the same source.
For assay [7], the target named is T1, M1-linked di-ubiquitin chain (M1-Ub2). This is another data set of the same source.
Assay [8] has as its target T3, K63-linked di-ubiquitin (K63-Ub2). This is another data set of the same source.
Assay [9] deals with T2, K27-linked di-ubiquitin (K27-Ub2). The source holds these as a separate data set.
The target in assay [10] is T1, M1-linked di-ubiquitin chain (M1-Ub2). The source holds these as a separate data set.

B1: BRAP (124–569) (RNF52 domain) (domain or fragment)
chain: DQISFFSGNPSVEIVHGIMHLYKTNKMTSLKEDVRRSAMLCILTVPAAMTSHDLMKFVAPFNEVIEQMKIIRDSTPNQYMVLIKFRAQADADSFYMTCNGRQFNSIEDDVCQLVYVERAEVLKSEDGASLPVMDLTELPKCTVCLERMDESVNGILTTLCNHSFHSQCLQRWDDTTCPVCRYCQTPEPVEENKCFECGVQENLWICLICGHIGCGRYVSRHAYKHFEETQHTYAMQLTNHRVWDYAGDNYVHRLVASKTDGKIVQYECEGDTCQEEKIDALQLEYSYLLTSQLESQRIYWENKIVRIEKDTAEEINNMKTKFKETIEKCDNLEHKLNDLLKEKQSVERKCTQLNTKVAKLTNELKEEQEMNKCLRANQVLLQNKLKEEERVLKETCDQKDLQITEIQEQLRDVMFYLETQQKINHLPAETRQEIQEGQINIAMASA
As to B1, the Kd in assay [1] came out at 22 nM; in assay [2], 48.5 nM; in [3] it was 60.8 nM; in [4] it was 171 nM.

B2: BRAP (1–592) (full-length) (natural protein)
chain: MSVSLVVIRLELAEHSPVPAGFGFSAAAGEMSDEEIKKTTLASAVACLEGKSPGEKVAIIHQHLGRREMTDVIIETMKSNPDELKTTVEERKSSEASPTAQRSKDHSKECINAAPDSPSKQLPDQISFFSGNPSVEIVHGIMHLYKTNKMTSLKEDVRRSAMLCILTVPAAMTSHDLMKFVAPFNEVIEQMKIIRDSTPNQYMVLIKFRAQADADSFYMTCNGRQFNSIEDDVCQLVYVERAEVLKSEDGASLPVMDLTELPKCTVCLERMDESVNGILTTLCNHSFHSQCLQRWDDTTCPVCRYCQTPEPVEENKCFECGVQENLWICLICGHIGCGRYVSRHAYKHFEETQHTYAMQLTNHRVWDYAGDNYVHRLVASKTDGKIVQYECEGDTCQEEKIDALQLEYSYLLTSQLESQRIYWENKIVRIEKDTAEEINNMKTKFKETIEKCDNLEHKLNDLLKEKQSVERKCTQLNTKVAKLTNELKEEQEMNKCLRANQVLLQNKLKEEERVLKETCDQKDLQITEIQEQLRDVMFYLETQQKINHLPAETRQEIQEGQINIAMASASSPASSGGSGKLPSRKGRSKRGK
Regarding B2, the figures for the Kd in assay [5], in [6] and in assay [7] were 11.3 nM, 6.27 nM and 5.19 nM, respectively. The results for the koff in assay [8], in [9] and in [10] were 0.00395 s⁻¹, 0.00302 s⁻¹ and 0.00264 s⁻¹, respectively.
